Measured values reported in patent US20250332297A1, “DLL3-SPECIFIC BINDING CONSTRUCTS AND THEIR USE IN RADIOTHERAPY” (MOLECULAR PARTNERS AG, priority 2024, published 2025).
Each block holds one binder with its values, some of them ahead of it.

B3: Human DLL3-ECD (recombinant extracellular domain of human DLL3, Examples 11, 17 and 19) (Fc fusion)
chain: AGVFELQIHSFGPGPGPGAPRSPCSARLPCRLFFRVCLKPGLSEEAAESPCALGAALSARGPVYTEQPGAPAPDLPLPDGLLQVPFRDAWPGTFSFIIETWREELGDQIGGPAWSLLARVAGRRRLAAGGPWARDIQRAGAWELRFSYRARCEPPAVGTACTRLCRPRSAPSRCGPGLRPCAPLEDECEAPLVCRAGCSPEHGFCEQPGECRCLEGWTGPLCTVPVSTSSCLSPRGPSSATTGCLVPGPGPCDGNPCANGGSCSETPRSFECTCPRGFYGLRCEVSGVTCADGPCFNGGLCVGGADPDSAYICHCPPGFQGSNCEKRVDRCSLQPCRNGGLCLDLGHALRCRCRAGFAGPRCEHDLDDCAGRACANGGTCVEGGGAHRCSCALGFGGRDCRERADPCAARPCAHGGRCYAHFSGLVCACAPGYMGARCEF
modifications: biotinylated at the Avi-tag where immobilised (Examples 11 and 19)
notes: also called hDLL3-ECD; human ECD; not shown: Avi-tag and Fc knob into hole (order depends on the format)

Columns and labels:
human serum albumin [1] = molecular target: T1, human serum albumin (human, UniProt P02768 25-609); experiment: SPR (ProteOn), HSA on chip
T1 construct: also called HSA

human serum albumin [2] = molecular target: T1, human serum albumin; experiment: SPR (ProteOn), HSA on chip, IAM-capped 2D DARPin as analyte, 1:1 Langmuir fit
mouse serum albumin [3] = molecular target: T2, mouse serum albumin (mouse, UniProt P07724 25-608); experiment: SPR (ProteOn), MSA on chip, IAM-capped 2D DARPin as analyte, 1:1 Langmuir fit
T2 construct: also called MSA

[4] = molecular target: T3, Human DLL3 expressed on cells (HEK293T-hDLL3, NCI-H82, SHP-77, MC38-hDLL3) (human, UniProt Q9NYJ7 27-618); experiment: flow cytometry titration on NCI-H82 cells, with HSA
T3 construct: also called DLL3 endogenously expressed on human cells
T3 sequence: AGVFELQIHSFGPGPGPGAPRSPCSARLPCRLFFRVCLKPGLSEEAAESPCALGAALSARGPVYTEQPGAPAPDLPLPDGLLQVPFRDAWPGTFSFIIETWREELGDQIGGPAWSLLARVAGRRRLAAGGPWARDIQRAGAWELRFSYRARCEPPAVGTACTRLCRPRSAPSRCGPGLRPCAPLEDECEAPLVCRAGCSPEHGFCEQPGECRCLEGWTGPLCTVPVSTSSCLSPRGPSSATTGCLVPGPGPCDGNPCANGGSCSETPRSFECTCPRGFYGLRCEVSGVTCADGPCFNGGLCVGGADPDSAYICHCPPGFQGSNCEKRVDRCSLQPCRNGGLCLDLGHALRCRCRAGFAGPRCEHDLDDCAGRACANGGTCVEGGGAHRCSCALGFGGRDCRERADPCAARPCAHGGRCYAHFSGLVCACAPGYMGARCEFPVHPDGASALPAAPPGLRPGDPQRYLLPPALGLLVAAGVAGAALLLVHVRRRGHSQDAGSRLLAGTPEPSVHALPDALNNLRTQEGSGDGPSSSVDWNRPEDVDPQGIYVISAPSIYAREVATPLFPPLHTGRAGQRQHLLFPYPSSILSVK

human serum albumin [5] = molecular target: T1, human serum albumin; experiment: SPR, HSA injected (injection 2) over immobilised hDLL3-ECD without conjugate
[6] = molecular target: T4, Cyno DLL3-ECD (extracellular domain of cynomolgus macaque DLL3, residues 27 to 466, Avi-tag, 3C site, Fc knob … (cynomolgus macaque, UniProt A0A2K5WSR1 27-464, biotinylated at the Avi-tag (Example 11))); experiment: SPR (ProteOn)
T4 construct: range 27-466; also called cyno ECD; cynomolgus monkey DLL3; not shown: Avi-tag, 3C protease recognition site and Fc knob into hole
T4 sequence: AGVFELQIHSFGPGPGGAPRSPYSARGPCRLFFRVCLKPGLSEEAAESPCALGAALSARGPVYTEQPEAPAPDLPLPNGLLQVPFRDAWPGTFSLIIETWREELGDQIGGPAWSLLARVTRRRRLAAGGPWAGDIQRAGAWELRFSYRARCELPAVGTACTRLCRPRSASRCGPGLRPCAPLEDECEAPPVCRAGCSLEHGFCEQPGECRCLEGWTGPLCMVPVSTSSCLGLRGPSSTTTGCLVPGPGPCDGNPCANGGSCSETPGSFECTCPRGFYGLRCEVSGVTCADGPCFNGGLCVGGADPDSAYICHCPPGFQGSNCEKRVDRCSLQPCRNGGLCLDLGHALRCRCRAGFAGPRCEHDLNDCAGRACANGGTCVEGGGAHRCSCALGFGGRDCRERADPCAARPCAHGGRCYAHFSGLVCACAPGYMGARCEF

[7] = molecular target: T5, Dog DLL3-NTD (truncated dog DLL3, N-Terminal Domain, residues 27-189, C-terminal 6xHis and Avi-tag) (dog, UniProt A0A8I3MXZ5 27-188, biotinylated at the Avi-tag); experiment: SPR (ProteOn)
T5 construct: also called dog NTD; not shown: C-terminal 6xHis and Avi-tag
T5 sequence: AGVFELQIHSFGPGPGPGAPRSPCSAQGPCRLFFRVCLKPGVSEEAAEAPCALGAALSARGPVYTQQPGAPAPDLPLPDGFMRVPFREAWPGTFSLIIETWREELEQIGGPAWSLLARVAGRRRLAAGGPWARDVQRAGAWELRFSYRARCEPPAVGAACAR

human serum albumin [8] = molecular target: T1, human serum albumin; experiment: SPR (ProteOn), HSA on chip, DARPin as analyte, 1:1 Langmuir fit
Protocol: (§1) SPR multi-trace analyses were performed similarly as described in previous Examples.
(§2) All analytes (3-fold dilution ranging from 600-7.41 nM) were injected in succession for 240 s and dissociation was recorded for 600 s using a constant flow of 25 μl/min (HSA) or 100 μl/min (MSA) (25 μl/min).

mouse serum albumin [9] = molecular target: T2, mouse serum albumin; experiment: SPR (ProteOn), MSA on chip, DARPin as analyte, 1:1 Langmuir fit
Protocol: as §1, §2

[10] = molecular target: T5, Dog DLL3-NTD (truncated dog DLL3, …); experiment: SPR (ProteOn), biotinylated dog DLL3-NTD on chip, DARPin as analyte, 1:1 Langmuir fit
Protocol: (§3) The data were generated using BioRad ProteOn instrument in SPR running buffer (PBS, pH 7.4 containing 0.005% Tween 20©). […] The chip was coated with biotinylated target to reach a signal intensity of 1516 RU (human ECD), 257 RU (human NTD), 1500 RU (cyno ECD) and 228 RU (dog NTD). […] Each injection was followed by a regeneration step with 16 mM H₃PO₄ for 18 s. […] The obtained SPR traces were used to determine on-rate and off-rate interaction parameters.

[11] = molecular target: T4, Cyno DLL3-ECD (extracellular domain of …); experiment: SPR (ProteOn), biotinylated cyno DLL3-ECD on chip, DARPin as analyte, 1:1 Langmuir fit
Protocol: as §3

[12] = molecular target: B3; experiment: SPR (ProteOn), biotinylated human DLL3-ECD on chip, DARPin as analyte, 1:1 Langmuir fit
Protocol: as §3

[13] = molecular target: T6, Human DLL3-NTD (truncated human DLL3, N-Terminal Domain, residues 27-189, C-terminal 6xHis and Avi-tag) (human, UniProt Q9NYJ7 27-189); experiment: SPR (ProteOn), biotinylated human DLL3-NTD on chip, DARPin as analyte, 1:1 Langmuir fit
T6 construct: also called hDLL3-NTD; human NTD; not shown: C-terminal 6xHis and Avi-tag
T6 sequence: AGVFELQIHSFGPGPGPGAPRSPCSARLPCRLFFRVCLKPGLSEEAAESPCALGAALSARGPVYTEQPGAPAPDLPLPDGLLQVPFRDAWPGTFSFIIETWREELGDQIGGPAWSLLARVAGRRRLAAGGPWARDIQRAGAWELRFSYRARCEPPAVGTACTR
Protocol: as §3

[14] = molecular target: B3; experiment: SPR (ProteOn), biotinylated human DLL3-ECD on chip, DARPin as analyte, 1:1 Langmuir fit (same values as Table 14)
Protocol: as §3

T2 sequence (P07724 25-608 limits assumed): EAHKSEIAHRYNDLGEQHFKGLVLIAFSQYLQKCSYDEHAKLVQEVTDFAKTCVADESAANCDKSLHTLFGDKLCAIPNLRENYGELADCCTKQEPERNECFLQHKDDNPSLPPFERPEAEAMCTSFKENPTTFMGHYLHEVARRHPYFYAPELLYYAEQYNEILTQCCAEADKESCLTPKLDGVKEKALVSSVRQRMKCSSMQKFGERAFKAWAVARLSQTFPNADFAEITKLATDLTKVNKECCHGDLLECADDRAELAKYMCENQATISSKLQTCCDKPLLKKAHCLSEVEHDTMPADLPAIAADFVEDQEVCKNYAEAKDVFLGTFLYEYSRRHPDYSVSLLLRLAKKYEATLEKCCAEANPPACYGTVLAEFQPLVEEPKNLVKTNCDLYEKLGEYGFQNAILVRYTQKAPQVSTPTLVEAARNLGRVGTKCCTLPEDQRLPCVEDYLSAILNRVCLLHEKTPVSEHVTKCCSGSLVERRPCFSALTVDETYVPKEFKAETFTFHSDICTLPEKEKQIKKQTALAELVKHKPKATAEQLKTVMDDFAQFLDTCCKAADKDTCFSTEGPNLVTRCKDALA

fold higher binding affinity than the Low HSA affinity 2D DARPin (human serum albumin [1]): ~10 fold | Kd (human serum albumin [2]): 295 nM | koff (human serum albumin [2]): 0.0311 s⁻¹ | kon (human serum albumin [2]): 105000 M⁻¹ s⁻¹ | Kd (mouse serum albumin [3]): 259 nM | koff (mouse serum albumin [3]): 0.0345 s⁻¹ | kon (mouse serum albumin [3]): 133000 M⁻¹ s⁻¹
B1: High HSA affinity 2D DARPin (SEQ ID NO: 17), Cysteine capped with iodoacetamide (designed binder)
chain: GSDLGKKLLEAARAGQDDEVRELLKAGADVNAKDYFSHTPLHLAARNGHLKIVEVLLKAGADVNAKDFAGKTPLHLAADAGHLEIVEVLLKAGADVNAQDIFGKTPADIAADAGHEDIAEVLQKAAGSPTPTPTTPTPTPTTPTPTPTGSDLGTKLLSAAADGQDDEVRELLQAGADVNAKDLFGYTPLHLAAWRGHLEIVEVLLEAGADVNAKDAAGLTPLHLAAWFGHLEIVEVLLEAGADVNAQDVQGVTPADLAAKEGHEDIAEVLQQAAGSGSC
modifications: free C-terminal Cysteine capped with Iodoacetamide (IAM)
notes: MAM160 with GS at the N-terminus and a Cysteine-containing tag at the C-terminus, without His-tag; also called GS-MAM160-tag

binding result [4]: no binding (tested: 500 nM)
B2: Non-binding DARPin control comprising SEQ ID NO: 22 (designed binder)
chain: DLGKKLLEAARAGQDDEVRELLKAGADVNAKDKDGYTPLHLAAREGHLEIVEVLLKAGADVNAKDKDGYTPLHLAAREGHLEIVEVLLKAGADVNAQDKSGKTPADLAADAGHEDIAEVLQKAAGSPTPTPTTPTPTPTTPTPTPTGSDLGKKLLEAARAGQDDEVRELLKAGADVNAKDKDGYTPLHLAAREGHLEIVEVLLKAGADVNAKDKDGYTPLHLAAREGHLEIVEVLLKAGADVNAQDKSGKTPADLAADAGHEDIAEVLQKAA
notes: Negative control on NCI-H82 cells; also called control DARPin

Binder: B3
binding result (human serum albumin [5]): no binding (tested: 1000 nM)

fold lower affinity than to human DLL3-ECD [6]: ~100 fold | fold lower affinity than to human DLL3-ECD [7]: ~10 fold | Kd (human serum albumin [8]): 75.5 nM | koff (human serum albumin [8]): 0.0216 s⁻¹ | kon (human serum albumin [8]): 286000 M⁻¹ s⁻¹ | Kd (mouse serum albumin [9]): 144 nM | koff (mouse serum albumin [9]): 0.0383 s⁻¹ | kon (mouse serum albumin [9]): 267000 M⁻¹ s⁻¹ | Kd [10]: 1.2 nM | koff [10]: 5.58e-05 s⁻¹ | kon [10]: 46400 M⁻¹ s⁻¹ | Kd [11]: 22 nM | koff [11]: 0.000978 s⁻¹ | kon [11]: 44500 M⁻¹ s⁻¹ | Kd [12]: 0.174 nM | koff [12]: 1.45e-05 s⁻¹ | kon [12]: 83500 M⁻¹ s⁻¹ | Kd [13]: 0.263 nM | koff [13]: 1.54e-05 s⁻¹ | kon [13]: 58700 M⁻¹ s⁻¹ | Kd [14]: 0.174 nM | koff [14]: 1.45e-05 s⁻¹ | kon [14]: 83500 M⁻¹ s⁻¹
B4: MAM279 (SEQ ID NO: 11) with a Glycine-Serine (GS) at its N-terminal end and an N-terminal His-tag (SEQ ID NO: 19) (designed binder)
chain: MRGSHHHHHHGSDLGKKLLEAARAGQDDEVRELLKAGADVNAKDYFSHTPLHLAARNGHLKIVEVLLKAGADVNAKDFAGKTPLHLAADAGHLEIVEVLLKAGADVNAQDIFGKTPADIAADAGHEDIAEVLQKAAGSPTPTPTTPTPTPTTPTPTPTGSDLGKKLLAAAAQGQDDEVRELLKAGANVNAKDLFGYTPLHLAAWRGHLEIVEVLLKAGADVNAKDAAGETPLHLAAWFGHLEIVEVLLKAGADVNAQDLQGKTPADLAAKEGHEDIAEVLQKAA
notes: also called unconjugated MAM279
